# Reference: paper PMC10992996, “Human CRB1 and CRB2 form homo- and heteromeric protein complexes in the retina” (Life Science Alliance, 2024)
# T1: CRB1-FLAG p.N1317H (human, UniProt P82279 26-1406, p.N1317H)
# T1 construct: Crumbs homolog 1, canonical form, human, cDNA NM_202153 as printed, with a patient missense mutation; Made by site-directed mutagenesis of m1; also called CRB1 p.N1317H; p.C1317H; source: HEK293T, transfected, in lysate; not shown: Strep-Strep-FLAG, N-terminal, kept
# T1 sequence (looked up): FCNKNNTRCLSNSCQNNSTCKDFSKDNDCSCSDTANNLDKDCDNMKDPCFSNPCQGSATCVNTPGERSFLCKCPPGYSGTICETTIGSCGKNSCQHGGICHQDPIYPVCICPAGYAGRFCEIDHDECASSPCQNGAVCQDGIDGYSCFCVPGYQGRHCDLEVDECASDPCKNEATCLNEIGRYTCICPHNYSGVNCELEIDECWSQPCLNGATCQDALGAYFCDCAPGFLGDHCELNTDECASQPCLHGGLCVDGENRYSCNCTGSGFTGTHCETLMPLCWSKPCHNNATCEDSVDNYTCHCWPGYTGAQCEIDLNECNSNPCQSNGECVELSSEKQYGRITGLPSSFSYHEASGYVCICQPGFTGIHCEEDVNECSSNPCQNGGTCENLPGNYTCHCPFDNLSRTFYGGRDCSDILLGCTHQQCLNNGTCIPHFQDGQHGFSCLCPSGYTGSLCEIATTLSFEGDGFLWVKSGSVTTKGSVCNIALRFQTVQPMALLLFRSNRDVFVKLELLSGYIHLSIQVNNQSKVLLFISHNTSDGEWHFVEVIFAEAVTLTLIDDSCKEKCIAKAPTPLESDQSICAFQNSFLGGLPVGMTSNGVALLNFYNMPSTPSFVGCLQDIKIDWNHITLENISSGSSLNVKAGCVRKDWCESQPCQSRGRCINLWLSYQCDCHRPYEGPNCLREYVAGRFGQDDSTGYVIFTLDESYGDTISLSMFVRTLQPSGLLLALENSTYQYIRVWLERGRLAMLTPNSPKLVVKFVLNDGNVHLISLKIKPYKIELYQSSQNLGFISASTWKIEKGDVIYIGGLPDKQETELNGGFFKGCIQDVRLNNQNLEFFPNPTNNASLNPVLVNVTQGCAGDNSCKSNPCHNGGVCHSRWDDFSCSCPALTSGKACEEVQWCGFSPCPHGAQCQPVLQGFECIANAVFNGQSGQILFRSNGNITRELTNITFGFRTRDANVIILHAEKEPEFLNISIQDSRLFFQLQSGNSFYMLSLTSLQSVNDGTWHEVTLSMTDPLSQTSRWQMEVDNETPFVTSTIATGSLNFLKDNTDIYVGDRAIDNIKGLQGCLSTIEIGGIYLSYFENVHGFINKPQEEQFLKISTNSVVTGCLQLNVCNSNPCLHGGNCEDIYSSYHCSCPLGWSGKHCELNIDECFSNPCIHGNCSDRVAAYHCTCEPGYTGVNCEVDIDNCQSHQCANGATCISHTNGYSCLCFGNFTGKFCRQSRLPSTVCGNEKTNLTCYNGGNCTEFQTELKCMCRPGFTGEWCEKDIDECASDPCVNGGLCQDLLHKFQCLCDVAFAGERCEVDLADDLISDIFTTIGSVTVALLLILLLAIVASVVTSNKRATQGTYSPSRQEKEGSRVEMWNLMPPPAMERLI
# B1: Human canonical CRB2 (Crumbs homolog 2) (natural protein)
# chain: not shown
# notes: Crumbs homolog 2, human, cDNA NM_173689; Stood as bait (FLAG copy) and as prey (HA copy) in the pairwise co-IP matrix; each copy carries only one of the two tags; The FLAG copy was the bait of the mass spectrometry pull-downs; also called CRB2-FLAG; CRB2-HA; source: HEK293T, transfected, in lysate (co-IP); HEK293T, transfected, FLAG-IP on beads, washed and purified with 0.01% SDS (retina …)
# Molecular target: T1, CRB1-FLAG p.N1317H
# Test: co-IP; HEK293T cells co-transfected pairwise with a FLAG and an HA construct, 48 h; lysis in TBS (30 mM Tris-HCl pH 7.4, 150 mM NaCl) with 0.5% Nonidet P40; FLAG-IP on ANTI-FLAG M2 Affinity Gel 60-90 min at 4°C, elution with FLAG peptide; Western blot with HA and FLAG antibodies; for mutants HA/FLAG signal in eluates relative to WT, three biological replicates
# Settings: partners not purified
binder,measurement,value
B1,percent reduction of the interaction relative to CRB1 WT,24%
